Assay results taken from publication PMC2910053.

Molecular target: Cy3B-SSB (W88C SSB labeled with Cy3B, one per monomer) W89C (UniProt P0AGE0)
Assay: bulk fluorescence

Substance: ssDNA (unspecified, bulk assay)
- Kd: < 2.5 nM
